Data as given in patent US10774129B2, “Complexes of types of MHC class II that bind to collagen type II peptides and their use on diagnosis and treatment” (FRAUNHOFER-GESELLSCHAFT ZUR FÖRDERUNG DER ANGEWANDTEN …, priority 2011, dated 2020).
Square brackets hold non-standard residues; d marks the D form. Ends that are not written are not given here. Cit = NC(=O)NCCC[C@H](N)C(=O)O

What was measured:
[1] = target: MHC class II of the HLA DRB1 0101 genotype (Homo sapiens, UniProt P01903+P01911, A100R/D57E/F55L/F60I/F76Y/I96L/L162R/M171V/P40L/Q125E/R42F/V115G/Y59C); assay: in vitro binding assay to recombinant MHC class II protein; design: key: *0101: the listing of the allele in the column for the allele indicates binding; *0401: “0401” in the “Binds to 0401” column indicates binding of the peptide to MHC class II of the HLA DRB1 0401 genotype; *0404: the listing of the allele in the column for the allele indicates binding; *0405: the listing of the allele in the column for the allele indicates binding; *0408: the listing of the allele in the column for the allele indicates binding; *1001: the listing of the allele in the column for the allele indicates binding; “no” or no data indicates no binding to a protein of that genotype
Summary of the method: (§1)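 Peptides tested for binding to recombinant MHC class II proteins of each allele in vitro; scored qualitatively as binding or no binding, with citrulline content noted per peptide.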

[2] = target: MHC class II of the HLA DRB1 0404 genotype (Homo sapiens, UniProt P01903+P01911, A100R/A169T/F76Y/I96L/K127E/L162R/M171V/N62H/P40V/Q125Y/R42H/S133A/S149N/S66Y/V209L/W38E); assay: as above; design: key: *0101: the listing of the allele in the column for the allele indicates binding; *0401: “0401” in the “Binds to 0401” column indicates binding of the peptide to MHC class II of the HLA DRB1 0401 genotype; *0404: the listing of the allele in the column for the allele indicates binding; *0405: the listing of the allele in the column for the allele indicates binding; *0408: the listing of the allele in the column for the allele indicates binding; *1001: the listing of the allele in the column for the allele indicates binding; “no” or no data indicates no binding to a protein of that genotype
Summary of the method: as §1

[3] = target: MHC class II of the HLA DRB1 0405 genotype (Homo sapiens, UniProt P01903+P01911, A100R/A169T/D86S/F76Y/I96L/K127E/L162R/M171V/N62H/P40V/Q125Y/R42H/S133A/S149N/S66Y/V115G/V209L/W38E); assay: as above; design: key: *0101: the listing of the allele in the column for the allele indicates binding; *0401: “0401” in the “Binds to 0401” column indicates binding of the peptide to MHC class II of the HLA DRB1 0401 genotype; *0404: the listing of the allele in the column for the allele indicates binding; *0405: the listing of the allele in the column for the allele indicates binding; *0408: the listing of the allele in the column for the allele indicates binding; *1001: the listing of the allele in the column for the allele indicates binding; “no” or no data indicates no binding to a protein of that genotype
Summary of the method: as §1

[4] = target: MHC class II of the HLA DRB1 0401 genotype (Homo sapiens, UniProt P01903+P01911, A100K/A169T/F76Y/I96L/K127E/L162R/M171V/N62H/P40V/Q125Y/R42H/S133A/S149N/S66Y/V115G/V209L/W38E); assay: as above; design: key to Binds to 0401: *0101: the listing of the allele in the column for the allele indicates binding; *0401: “0401” in the “Binds to 0401” column indicates binding of the peptide to MHC class II of the HLA DRB1 0401 genotype; *0404: the listing of the allele in the column for the allele indicates binding; *0405: the listing of the allele in the column for the allele indicates binding; *0408: the listing of the allele in the column for the allele indicates binding; *1001: the listing of the allele in the column for the allele indicates binding; “no” or no data indicates no binding to a protein of that genotype; conditions: for Binds MHC in vitro: HLA tested *0401; for Binds to 0401: recombinant MHC class II, HLA DRB1 0401
Summary of the method: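 Peptides, citrullinated or not, tested for binding to recombinant HLA-DRB1*0401 MHC class II protein in vitro. Read-out is qualitative, binding or no binding.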

[5] = system: MHC class II of the HLA DRB1 0408 genotype; assay: as above; design: species or system human; key: *0101: the listing of the allele in the column for the allele indicates binding; *0401: “0401” in the “Binds to 0401” column indicates binding of the peptide to MHC class II of the HLA DRB1 0401 genotype; *0404: the listing of the allele in the column for the allele indicates binding; *0405: the listing of the allele in the column for the allele indicates binding; *0408: the listing of the allele in the column for the allele indicates binding; *1001: the listing of the allele in the column for the allele indicates binding; “no” or no data indicates no binding to a protein of that genotype
From the text: (§2) Binding of the peptides to recombinant MHC class II protein of various alleles has been confirmed in an in vitro binding assay and the results are shown in Tables 1, 2 and 3. In table 1, 2 and 3, the listing of the allele in the column for the allele indicates binding. Thus “0401” in the “Binds to 0401” column indicates binding of the peptide to MHC class II of the HLA DRB1 0401 genotype. “no” or no data indicates no binding to a protein of that genotype. Empty boxes indicate no binding or that binding has not been determined. In the tables it is also indicated if the peptide has a citrulline residue, where “yes” indicates the presence of a citrulline residue and “no” indicates the absence of a citrulline residue.

[6] = system: MHC class II of the HLA DRB1 1001 genotype; assay: as above; design: species or system human; key to Binds to 1001: *0101: the listing of the allele in the column for the allele indicates binding; *0401: “0401” in the “Binds to 0401” column indicates binding of the peptide to MHC class II of the HLA DRB1 0401 genotype; *0404: the listing of the allele in the column for the allele indicates binding; *0405: the listing of the allele in the column for the allele indicates binding; *0408: the listing of the allele in the column for the allele indicates binding; *1001: the listing of the allele in the column for the allele indicates binding; “no” or no data indicates no binding to a protein of that genotype; conditions: recombinant MHC class II, HLA DRB1 1001
From the text: as §2

[7] = system: PBMCs (CD4+ T cells) from rheumatoid arthritis patients with HLA genotype HLA DRB1-0401; assay: T-cell activation in PBMCs, intracellular cytokine staining and CD154 by flow cytometry; assay type: cell-based, human; conditions: 5 to 50 ug/ml, 5-day incubation; for double staining for CD154 and at least one cytokine (IFNgamma, IL-17A, TNF alpha), activation of T-cells: HLA DRB1-0401 patients; for Activation of T-cells: HLA tested *0401, yes = all patients positive for at least one cytokine

Row | Substance | Binds to 0101 [1] | Binds to 0404 [2] | Binds to 0405 [3] | Binds MHC in vitro [4] | Binds to 0401 [4] | Binds to 0408 [5] | Binds to 1001 [6] | double staining for CD154 and at least one cytokine (IFNgamma, IL-17A, TNF alpha), activation of T-cells [7] | Activation of T-cells [7] | binding to HLA-DRB1 0401 [4]
1 | a-enolase 313: citrullinated human alpha-enolase peptide (K[Cit]IAKAVNEKSCNCL; cysteine pairing not given here; listed as Homo sapiens) | *0101 | *0404 | *0405 | yes | *0401 | no | no | double stained positive for both CD154 and at least one cytokine | yes | 
2 | a-enolase 6: human alpha-enolase peptide, not citrullinated; non-citrinullated counterpart of peptide 291 (TSKGLFRAAVPSGAS; listed as Homo sapiens) | *0101 | *0404 | *0405 |  | no | no | no | did not result in a response |  | does not bind
3 | a-enolase 49: human alpha-enolase peptide, not citrullinated (VIGMDVAASEFFRSG; listed as Homo sapiens) | no | *0404 | *0405 | yes | *0401 | *0408 | no | double stained positive for both CD154 and at least one cytokine | yes | 
4 | a-enolase 66: human alpha-enolase peptide, not citrullinated (KRIAKAVNEKSCNCL; listed as Homo sapiens) | *0101 | *0404 | *0405 | yes | *0401 | *0408 | no | double stained positive for both CD154 and at least one cytokine | yes | 
5 | a-enolase 81: human alpha-enolase peptide, not citrullinated (SERLAKYNQLLRIEE; listed as Homo sapiens) | *0101 | *0404 | no |  | no | no | no |  |  | 
6 | a-enolase 14: human alpha-enolase peptide, not citrullinated (VEHINKTIAPALVSK; listed as Homo sapiens) | *0101 | *0404 | no |  | no | *0408 | no |  |  | 
7 | a-enolase 12: human alpha-enolase peptide, not citrullinated (RYMGKGVSKAVEHIN; listed as Homo sapiens) | *0101 | no | *0405 |  | no | *0408 | *1001 |  |  | 
